Test results taken from article PMC7835520.
Blank lines part the entries; values can stand above or below the substance they belong to.

Columns and labels:
Assay in all cases: SEC; cleared, microfiltered serum-containing supernatant of transfected Bosc23 cells; Superdex 200 10/300 GL in PBS at 4°C; fractions TCA precipitated and immunoblotted with α-Shh or α-StrepII antibodies; total eluted protein set to 100%, monomeric (< 80 kDa) versus multimeric (> 80 kDa)
[1] = target: Shh^HA, Shh with an HA tag inserted into the C-terminal peptide (Mus musculus)
[2] = target: ^HAShh^HA, Shh with HA tags in both terminal peptides (Mus musculus)
[3] = target: Shh^Strep, Shh with a StrepII tag inserted into the C-terminal peptide (Mus musculus)
[4] = target: Sonic hedgehog (Shh), untagged (Mus musculus)

percent of eluted protein < 80 kDa (monomeric) [1]: 65%
Substance: Shh^HA, Shh with an HA tag inserted into the C-terminal peptide (ligand)

percent of eluted protein < 80 kDa (monomeric) [2]: 56%
Substance: ^HAShh^HA, Shh with HA tags in both terminal peptides (ligand)

percent of eluted protein < 80 kDa (monomeric) [3]: 80%
Substance: Shh^Strep, Shh with a StrepII tag inserted into the C-terminal peptide (ligand)

percent of eluted protein < 80 kDa (monomeric) [4]: 15%
Substance: Sonic hedgehog (Shh), untagged (ligand)
